# Assay results published in a protein production outcome set (Wang et al. 2014).
# Assay: label from the status in PepcDB records
sequence,measurement,value
MHHQQRMAALGTDKELSDLLDFSAMFSPPVSSGKNGPTSLASGHFTGSNVEDRSSSGSWGNGGHPSPSRNYGDGTPYDHMTSRDLGSHDNLSPPFVNSRIQSKTERGSYSSYGRESNLQGCHQQSLLGGDMDMGNPGTLSPTKPGSQYYQYSSNNPRRRPLHSSAMEVQTKKVRKVPPGLPSSVYAPSASTADYNRDSPGYPSSKPATSTFPSSFFMQDGHHSSDPWSSSSGMNQPGYAGMLGNSSHIPQSSSYCSLHPHERLSYPSHSSADINSSLPPMSTFHRSGTNHYSTSSCTPPANGTDSIMANRGSGAAGSSQTGDALGKALASIYSPDHTNNSFSSNPSTPVGSPPSLSAGTAVWSRNGGQASSSPNYEGPLHSLQSRIEDRLERLDDAIHVLRNHAVGPSTAMPGGHGDMHGIIGPSHNGAMGGLGSGYGTGLLSANRHSLMVGTHREDGVALRGSHSLLPNQVPVPQLPVQSATSPDLNPPQDPYRGMPPGLQGQSVSSGSSEIKSDDEGDENLQDTKSSEDKKLDDDKKDIKSITSNNDDEDLTPEQKAEREKERRMANNARERLRVRDINEAFKELGRMVQLHLKSDKPQTKLLILHQAVAVILSLEQQVRERNLNPKAACLKRREEEKVSSEPPPLSLAGPHPGMGDASNHMGQM,protein production,failed
MLIYNLAIHSYLGCDSLALLPKANTLSKEKNINNADDTIKDQILASIDSFIYTKDLSGKYTYANQAVLDLFEKNLADVIGFDDTHFFDLALSKQLKANDRMVMDQVIRIENEESNFIRAKNETRIFKVVKKPLFDHLGNVNGICGISTDITVEKQLQEQVNEQSYLLETMLNNIDAHIYVKDCERTFLYVNNRVAELFGDKAENIIGKKDTDILPKEIAEHFYQSDKQVFETNQKQVIEETTHGENGDNCHYISTKVPFDRPDKLPALIGFSTDVTELFKLKEEFKLLANTDPLTNLYNRRFFIEQAEKEYQRAKRYSLSMTLISIDIDHFKSINDQFGHPAGDQVLIEIAKQLKASLRQTDILARIGGEEFSILLPETSAMSAMTFAERIKEEQSRLIITGDWQGEINLSVSIGVSSLIASDKAFDVLFSRADKALYQAKNTGRNTVCYL,protein production,failed
MTGQTQGKAVIARERISFWGGFDPQTGRIVDPYSSLRGRDISDCVLILLSSKGSSGTSGMLSLATRAGHAPAAMIQVEMDPVTVMGCLVNNIPLLQASGFDPFEQIQDGDLVRIDGENGTITLTPGQALEHHHHHH,protein production,failed
RLQPIIVPGWQGSGPGHWQTHWSRTLPHAVRLQQRDWHQPQRAEWVAALAAAVDAAPTPVLLVAHSLGCLVSAALPIALRAKVAGALLVAPADVERPGAPAAIAAFGPVPRQSLPYQSVVIASDDDPYCRLERARQFAQDWGSRLVVLQGAGHINADSQLGAWPQGLKQLAALRRRACW,protein production,failed
DAPPAWLRCLAATYPVLAPLPNWGLSESRFRPVRAVANAGALPVVLTRVGREMPEIAATVEEFLAAAKDCGADVEVVDVPHGHHGFETIDLTDESRTAVRHALRTVL,protein production,failed
MLHIDDAMIEDAVTPQAAQEVLHAAFLDFGRGSAAMQRRVRTEAGGVKLSTLGAVIPGQGVAGAKVYTTIKGQFQFVILLFSAADGRPLATCDAGTLTRKRTAACTVLAAGALARPRSSVLGLFGAGTQGAEHAAQLSARFALEAILVHDPYASPEILERIGRRCGVPARMAAPADIAAQADIVVTATRSTTPLFAGQALRAGAFVGAIGSSLPHTRELDDEALRRARAVVVEWREQTLSEAGDLVLAAPDTGLDAKVVELADVLAGRAAARQADEDIVIYKSVGVGLEDVALAGYAYRRLAAQRGWPAP,protein production,not failed
MISDNFFTEHMTIVIAVAIVLLLIIILLTCWKRVPADKALVITGLKKRVLTGKGGIQVPFLETSCIISLEAVSMTTDITEAPSKQGIFVDIAGTAVVKVDNNPEKVLIAVEQFCSGNADRTTQNIKTVVEQILEGKLRGIVSTLTVEQINEDRVAFENSIEDSITRELDNMGLRLLSYTVLKIATQGGYLENRAIPQIAQSKADADIASAERARDTEVKTAAAVREGQKAKLEAEAEIAQSDRDKTIRMEQYRAEQDKIKANADVSYKLQEIENNKIVADRNVELAKKEAQVVEEQLVASVKKPADAKKYETEVQAEANKIKSIKEAEARAQALKIEAQARADAKLLEAKAEAEAIRAQGEAEAEALKAKGIAEAEAKDRLAEAMEKYGEAAMMSMVVERLPEIMAQIAKPMEQIDKITVIDNGSGDGGSKVSKIVSDVAANGFEVLKDLTGADLGEVVRTIANKNSNNKPKTK,protein production,failed
MMEERANLMHMMKLSIKVLLQSALSLGRSLDADHAPLQQFFVVMEHCLKHGLKVKKSFIGQNKSFFGPLELVEKLCPEASDIATSVRNLPELKTAVGRGRAWLYLALMQKKLADYLKVLIDNKHLLSEFYEPEALMMEEEGMVIVGLLVGLNVLDANLCLKGEDLDSQVGVIDFSLYLKDVQDLDGGKEHERITDVLDQKNYVEELNRHLSCTVGDLQTKIDGLEKTNSKLQEELSAATDRICSLQEEQQQLREQNELIRERSEKSVEITKQDTKVELETYKQTRQGLDEMYSDVWKQLKEEKKVRLELEKELELQIGMKTEMEIAMKLLEKDTHEKQDTLVALRQQLEEVKAINLQMFHKAQNAESSLQQKNEAITSFEGKTNQVMSSMKQMEERLQHSERARQGAEERSHKLQQELGGRIGALQLQLSQLHEQCSSLEKELKSEKEQRQALQRELQHEKDTSSLLRMELQQVEGLKKELRELQDEKAELQKICEEQEQALQEMGLHLSQSKLKMEDIKEVNQALKGHAWLKDDEATHCRQCEKEFSISRRKHHCRNCGHIFCNTCSSNELALPSYPKPVRVCDSCHTLLLQRCSSTAS,protein production,not failed
QWDITLIGHEDDLSQLSHEKLSKLAACIEYSPYPMVEIDYFGNLTYLNTATKEKFPSIQKDSMAHPLLKDIIPQREDTPIYYLRTREVQIGDKFYEQHIHYPAESQFIRSYIFDITERKVIEQSIHYQAFYDPLTDLPNRFLFKQELGKVLSNVQNQSSVLGLVLLGFRELQSLNDLLG,protein production,failed
MYLYLSLILLAFTLSLDSCSVGLTYGLRSVRIPLRSIIIIGMCSAAVMLVSMGIGHMIAKVFSPVIATRIGGLVLIGIGIWVLYQFFRSERKEEPKQEEKVWKLEIASLGLVIQILRKPTVADFDKSGTISAGEALLLGIALSVDSFGAGIGASLLGYAPAMMAILVAVMSSLFLFIGMKLGTVLSNMKWLQKFTFLPGVLLIIIGIWKM,protein production,failed
MNPTTLADVDTVIINANILTLDRDCPHAQAIAFAAGRILALGTTQELSPLAGRAATVVDARGSTLLPGFIDSHSHLMFGGVVAQALDLTEAACLSDLLDMVRSRAQSTPEGEWIRGYGVAAGRLKEKRYPTRQELDQVSGGRPVWLAEDSFHASLVNSKAFRMLEIPLSTPGVELAADGSPTGAFLNDAANVPARQRVFGFISDDEARQMLQHVTQLGATRGVTTVHAFEGSRMSADRDIELLMRFRHELPIHVVPYYETFDVERAMQLGVSGVGGCGRNCLDGMPNIQTAAMVDPYCCSEERGSLFQESIKLHNFVIAAFERGMQVGMHAMGDAAIEQLLATYERAIEETGRTDLRPRIEHFHVPSRDHVRRAADLGVGLAVQPIFTHLWGGRDGIFFERLGERRYKRIDTYREILDSGAIASCGADLPVHPADPLRWIQLLVDNQIDRDQSVSMTEAIRMCTYNGAWLGFQESETGTLAVSKAADAVMLGRDPHQCMPHEIAAIPILKTLGGKLVFESSRPLEHHHHHH,protein production,failed
SERTELLKPRTLADLIRILHELFAGDEVNVEEVQAVLEAYESNPAEWALYAKFDQYRYTRNLVDQGNGKFNLMILCWGEGHGSSIHDHTDSHCFLKLLQGNLKETLFDWPDKKSNEMIKKSERTLRENQCAYINDSIGLHRVENVSHTEPAVSLHLYSPPFDTCHAFDQRTGHKNKVTMTFHSKFGIRTPFTTSGSLENN,protein production,failed
MDISLLSTTSDPEQLRALAIAMVQKVMAENAELQNRIRILEEQMKLARQQRFGKKCESLAGMQRSLFEEDVDADIAEISAHLDKLLPQTGDEEKTTTRPVRKPLPSPLPRAEKVIPPAEERCPDCDAPLHFIRDEVSEKLEYIPAQVVVNRYIRPQYSCPCCEKVFSGKMPAHILPKSAVEPSVIAQVVISKYTDHLPLYRQQHIFSRMGVELPVSTMADMVGVAGAALAPLAKLLRHELLTRDVIHADETSLRLLDTRKGGKSCSGWLWAYVSGERVSVNGAPY,protein production,failed
MLVNFIKNFIPHRFYSSKTEIPVVRLHGAIIDSSSSIARTLSLGRCANLLDKAFAYKKAPAVAVIINSPGGSPVQSRLIFKRIRDLAEEKKKQVLMFIEDIAASGGYMIACAGDEIFADPSSIVGSIGVVSASFGFPELLKKIGIERRVYTAGKNKVTLDPFQPEKKTDIEHLKSLQLEVHKTFIDLVKERRAEKLSNDPNIFTGMFWSGKKSVELGLIDGLNDVRSVIKERFGDDTKLRLIIPPKSLFGPKTPSGVTAHAVHTAIDSALMVAQERALWQYYGLLEHHHHHH,protein production,not failed
MKYTIEEIRQMQEGQTFDCKSILIEPKHLATIIVAMANADGGMIAVGISDKTRRIEGVNQDKEHLNDILRTPLDFCVPSVSVTTDYVPCTDAEGRDNRVLLMHIPASPRLHANQADEVFWRVGDKSRKLTFDERLQLMYDKGERYYEDSTAYDATLDDIDMDAVKAYMKRIGYGKSAMEYLQENKGFVTYKGDVPQVSAACILLFGKHPQTFFPRARVRFIKYFGTEEKVGREMNVIKDVTFDGRILEQIQKTVEYLETQVKEHSYLGEDGIFKTDREYPKFVIQEMVVNSVCHRDYSIKGTEIQIKMFDDRLVFETPGKLPGIVRTDNIRHTHFSRNPKIAEFLKAYDYVKEFGEGVDRMCRELSALGVKEPQYNLVAFIMKATVCAKVLEERQGTNHFDQKRPESDQKSDQMRIILELIKSNPNISRTELSEKTGLHDSSVKRRLKTLVDEGLIQRVGPDKGGQWKVIGSLLEHHHHHH,protein production,not failed
KFTELEFHRIIGTGQFGLVRVVRNIKTNEVYALKVMHKAPIVESKQIEHVINERKILEEACTHPFCVRLCGAYQDKASLYLLQEWVPGGELFHHLDVEGAFDEPTAMFYAANVLLALEFLHAKGIVYRDLKPENLLLDTQGYIKMADFGFAKYIGGDKTYTICGTPDYQAPEVIMRRGTTKAADYWALGVLIFEMLVGDPPFKSLTGDPWDTFRRTLSGRFYVPNFISDQAADLIFKLLQVNPDKRLGSDKRLGAEEIKRHRWFSRIDWRALEQKKLPSPFRPRVRNPLDTSNFDNFDN,protein production,not failed
MEEVSSEMEVEVQNRQLSDSSPAQNVKKFGLKNSIQTNFGSDYVFQIVPKIDWTAIAVSLSTNTVKLYSPVTGQYYGECKGHSDTVNQIAFSSDSAASPHVLHSCSSDGTIRSWDTRSFQQVSRIDTGNDQEIFSFSYGGAADNLLAGGCKEQVLLWDWRNSKQVACLEESHMDDVTQVHFVPNKPNKLLSASVDGLICLFNTEGDINDDDHLESVINVGTSIGKIGFLGDGYKKLWCLTHIETLSIWNWEDGSCEVNLEKARELASDSWTQDNVDYFVDCHCPGGEDLWVIGGTCAGTVGYFPVNYKQPGSIGTAEAILGGGHIDVVRSVLQMPGEYGGAAGLFGWTGGEDGRLCCWKSDEDATEINRSWTSSELVVKPPRNRKKNRHSPY,protein production,failed
MKQIIIAIGREFGSGGHLVAKKLAEHYNIPLYSKELLDEVAKDGRYSKEVLERFDEKPMNFAFIPVPAGGTTISLEQDIAIRQFNFIRKKANEEKESFVIVGRCAEEILSDNPNMISAFILGDKDTKTKRVMEREGVDEKTALNMMKKMDKMRKVYHNFYCESKWGDSRTYDICIKIGKVDVDTATDMIIKYIDSRDN,protein production,not failed
KTPIQVLHEYGMKTKNIPVYECERSDVQIHVPTFTFRVTVGDITCTGEGTSKKLAKHRAAEAAINILKANA,protein production,not failed
